For one molecule, IC50, IGF-1 (10 nM)-induced proliferation of SW480 cells, exp. 13262-015, IC50, IGF-1 (10 nM)-induced proliferation of SW480 cells, exp. 13262-016 and Cell results are on record in patent US20110039779A1, “IGF-1R BINDING PROTEINS AND ANTAGONISTS” (priority 2007, published 2011).

Where only a bound is given, the exact number is not on record here.

Test [1] has as its target IGF-1R on SW480 cells, P08069. In words: cell-based or functional assay.
Test [2] has as its target IGF-1R on MCF-7 cells (MCF-7S8, MCF7) (human), P08069. In words: cell-based or functional assay.

Chain of IGF-1R on SW480 cells, P08069 (P08069 31-1367 limits assumed): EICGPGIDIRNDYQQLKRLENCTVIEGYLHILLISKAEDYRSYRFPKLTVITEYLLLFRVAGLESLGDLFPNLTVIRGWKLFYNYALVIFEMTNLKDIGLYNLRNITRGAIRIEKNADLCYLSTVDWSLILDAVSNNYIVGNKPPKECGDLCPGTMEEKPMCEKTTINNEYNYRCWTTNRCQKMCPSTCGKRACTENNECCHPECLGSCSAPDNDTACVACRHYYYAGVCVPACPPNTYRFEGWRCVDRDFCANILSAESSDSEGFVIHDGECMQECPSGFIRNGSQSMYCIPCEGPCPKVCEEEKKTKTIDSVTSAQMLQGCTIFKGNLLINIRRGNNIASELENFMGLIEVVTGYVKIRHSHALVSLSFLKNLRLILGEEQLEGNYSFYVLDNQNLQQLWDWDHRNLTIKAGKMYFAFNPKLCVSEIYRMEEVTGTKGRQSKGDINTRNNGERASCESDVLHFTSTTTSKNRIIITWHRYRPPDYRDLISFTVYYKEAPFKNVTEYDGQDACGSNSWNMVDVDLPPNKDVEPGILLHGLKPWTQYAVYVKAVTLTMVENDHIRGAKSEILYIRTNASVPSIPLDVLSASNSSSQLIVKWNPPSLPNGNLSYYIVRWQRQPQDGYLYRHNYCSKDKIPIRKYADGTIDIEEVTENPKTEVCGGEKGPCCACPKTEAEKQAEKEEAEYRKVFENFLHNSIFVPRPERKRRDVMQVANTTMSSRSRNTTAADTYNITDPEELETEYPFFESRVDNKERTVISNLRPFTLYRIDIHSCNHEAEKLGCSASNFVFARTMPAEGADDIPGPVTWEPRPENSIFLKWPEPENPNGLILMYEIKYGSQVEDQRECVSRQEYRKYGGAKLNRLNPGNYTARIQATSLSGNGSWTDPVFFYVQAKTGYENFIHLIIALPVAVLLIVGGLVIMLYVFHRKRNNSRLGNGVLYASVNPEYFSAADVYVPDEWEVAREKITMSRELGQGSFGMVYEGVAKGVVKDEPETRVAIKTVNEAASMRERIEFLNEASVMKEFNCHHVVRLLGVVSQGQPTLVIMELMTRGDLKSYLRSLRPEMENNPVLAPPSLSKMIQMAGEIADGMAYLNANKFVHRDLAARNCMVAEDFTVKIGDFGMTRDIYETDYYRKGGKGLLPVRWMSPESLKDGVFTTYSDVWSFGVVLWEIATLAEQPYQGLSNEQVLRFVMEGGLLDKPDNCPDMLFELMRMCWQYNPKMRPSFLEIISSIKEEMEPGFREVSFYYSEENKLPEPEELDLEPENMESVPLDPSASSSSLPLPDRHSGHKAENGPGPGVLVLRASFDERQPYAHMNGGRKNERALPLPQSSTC
Chain of IGF-1R on MCF-7 cells (MCF-7S8, MCF7) (human), P08069 (P08069 31-1367): as the sequence (P08069 31-1367 limits assumed) above

Turning to SFYSCLESLVNGGAERSDGQWEGCR (modifications not checked) [F113], in test [1], the IC50, IGF-1 (10 nM)-induced proliferation of SW480 cells, exp. 13262-015 was over 10 µM and the IC50, IGF-1 (10 nM)-induced proliferation of SW480 cells, exp. 13262-016 is over 10 µM. This molecule also came in with a Cell in test [2] of 1000 nM.
